{"source": "paper PMC6171537", "about": "(Biochemistry and Biophysics Reports, 2018)", "proteins": {"B1": {"name": "LOV-HK (blue light-activated histidine kinase from Brucella abortus), construct 15-489 (enzyme)", "chain": "MALSQATDPFRAAVEFTLMPMLITNPHLPDNPIVFANPAFLKLTGYEADEVMGRNCRFLQGHGTDPAHVRAIKSAIAAEKPIDIDIINYKKSGEAFWNRLHISPVHNANGRLQHFVSSQLDVTLELSRLVELEKERKTLSIETARSKDQLDYIVEVANIGFWTREFYSGKMTCSAECRRIYGFTPDEPVHFDTILDLVVLEDRMTVVQKAHQAVTGEPYSIEYRIVTRLGETRWLETRAKALTGENPLVLGIVQDVTERKKAEANKALVSREIAHRFKNSMAMVQSIANQTLRNTYDPEQANRLFSERLRALSQAHDMLLKENWAGATIQQICATALAPFNSTFANRIHMSGPHLLVSDRVTVALSLAFYELATNAVKYGALSNEKGVINITWAIMEDKGEKKFHMRWAESRGPEVMQPARRGFGQRLLHSVLAEELKAKCDVEFAASGLLIDVLAPITPEVFPGMGHNVPEQRIA", "notes": "also called pET-24a-LOVHK-15-489"}}, "molecular_target": "the molecule itself", "assay": "SEC-MALS"}
{"protein": "B1", "values": [{"measurement": "stoichiometry N", "value": 2}]}
